This data set deals with the molecule itself. In words: SDS-PAGE under reducing and non-reducing conditions.

Usually stoichiometry N stands for the number of molecules, sites or subunits per partner or assembly.

B1: BMP-4 growth factor (GF) from the B2/4 construct (BMP-2 pro-domain and BMP-4 GF sequence) (ligand, human, UniProt P12644 293-408, looked up)
chain: SPKHHSQRARKKNKNCRRHSLYVDFSDVGWNDWIVAPPGYQAFYCHGDCPFPLADHLNSTNHAIVQTLVNSVNSSIPKACCVPTELSAISMLYLDEYDKVVLKNYQEMVVEGCGCR
modifications: two N-linked glycans
With B1, the “stoichiometry N” value was determined as 2.

The values are drawn from publication PMC8766921 (Molecular biotechnology, 2021).
